Data from patent publication US9259479B2, “Treatment for comorbid diabetes with chronic kidney disease” (Eli Lilly and Company, priority 2012, dated 2016).
Where two headings read alike, the source gives them in different places.

Settings: rat, in vivo
Protocol: To induce diabetes, 10-week old male Harlan Sprague Dawley rats (Harlan, Indianapolis, Ind., USA) 250-280 g body weight, are dosed intravenously (IV) via tail vein with 45 mg/kg streptozotocin (STZ) in 0.5 M citric acid, pH 4.5, three days prior to study. […] Graphical and noncompartmental PK analyses are performed using SigmaPlot v11 (Systsat Software, Inc., San Jose, Calif.) and WinNonlin® Professional v5.3 (Pharsight®, St Louis, Mo., USA), respectively.

Question: With PEG20kDa-LysB29 human insulin as the substance, how does the Tmax (male, Harlan Sprague Dawley, sc) read?
Answer: 12 ± 0 h

Question: What about the CL/F (male, Sprague Dawley, sc) of the same substance?
Answer: 1.13 ± 0.12 mL/min/kg

Question: What about the “PK profile of the two molecules compared” value of the same substance?
Answer: statistically similar

Question: What about the CL/F (sc) of the same substance?
Answer: 1.67 ± 0.33 mL/min/kg

Question: And the Cmax (sc, 93 nmol/kg)?
Answer: 41.1 ± 6.3 nM
